The target in assay [1] is T1, LILRB2 (human, UniProt Q8N423 22-458, limits assumed).
T1 construct: also called leukocyte immunoglobulin-like receptor subfamily B member 2
Put plainly: flow cytometry on LILRB2-overexpressing 293T cells, mAb at 2 ug/ml.

In assay [2] the target is T2, human LILRB4 (human, UniProt Q8NHJ6 22-259, limits assumed).
T2 construct: also called leukocyte immunoglobulin-like receptor subfamily B member 4
The experiment in a line: ELISA. A general note: ELISA stands for enzyme-linked immunosorbent assay.

The target of assay [3] is T2, human LILRB4. Put plainly: ELISA, OD450 against antibody concentration.
In assay [4] the target is T2, human LILRB4. The experiment in a line: ELISA, OD450 against antibody concentration. The source holds these as a separate data set.
The target of assay [5] is T3, LILRB3 (human, UniProt O75022 24-443, limits assumed).
T3 construct: also called leukocyte immunoglobulin-like receptor subfamily B member 3
T3 sequence (O75022 24-443 limits assumed): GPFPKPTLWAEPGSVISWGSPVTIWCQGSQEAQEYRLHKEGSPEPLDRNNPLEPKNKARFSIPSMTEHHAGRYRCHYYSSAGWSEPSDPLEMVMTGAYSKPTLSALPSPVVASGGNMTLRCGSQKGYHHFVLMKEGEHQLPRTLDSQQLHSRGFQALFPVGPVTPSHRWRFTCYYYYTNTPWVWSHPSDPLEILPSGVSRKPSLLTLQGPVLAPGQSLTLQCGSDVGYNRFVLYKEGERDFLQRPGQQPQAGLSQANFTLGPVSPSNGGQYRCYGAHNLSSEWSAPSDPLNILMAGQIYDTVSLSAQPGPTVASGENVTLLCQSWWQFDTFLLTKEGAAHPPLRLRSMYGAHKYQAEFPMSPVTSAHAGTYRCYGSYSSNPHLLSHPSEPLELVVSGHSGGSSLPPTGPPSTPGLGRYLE
The experiment in a line: flow cytometry on LILRB3-overexpressing 293T cells, mAb at 2 ug/ml. (Flow cytometry measures light scatter and fluorescence of single cells or particles in a stream.)

The target in assay [6] is T2, human LILRB4. Put plainly: reactivity table, assay not named on the sheet.
Assay [7] deals with LILRB5 (human, UniProt O75023 24-458, limits assumed). The experiment in a line: reactivity table, assay not named on the sheet.
Chain of LILRB5 (O75023 24-458 limits assumed): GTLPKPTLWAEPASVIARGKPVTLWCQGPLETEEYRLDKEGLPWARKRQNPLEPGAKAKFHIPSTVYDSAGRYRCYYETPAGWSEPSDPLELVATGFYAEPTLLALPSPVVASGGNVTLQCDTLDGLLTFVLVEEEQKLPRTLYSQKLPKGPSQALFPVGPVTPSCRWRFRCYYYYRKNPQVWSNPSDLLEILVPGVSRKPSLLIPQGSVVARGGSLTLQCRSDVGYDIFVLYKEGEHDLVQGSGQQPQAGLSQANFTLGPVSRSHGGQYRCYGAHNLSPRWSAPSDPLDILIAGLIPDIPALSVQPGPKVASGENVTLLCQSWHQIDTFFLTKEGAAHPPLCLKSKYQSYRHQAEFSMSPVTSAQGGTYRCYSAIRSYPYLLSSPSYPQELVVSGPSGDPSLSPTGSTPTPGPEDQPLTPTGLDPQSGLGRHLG
Assay [8] has as its target T2, human LILRB4. The experiment in a line: flow cytometry on LILRB4-overexpressing 293T cells, mAb at 2 ug/ml.
Assay [9] addresses T2, human LILRB4. Put plainly: ELISA, OD450 against antibody concentration. This is another data set of the same source.
Assay [10] concerns the target D2-SR-M16(210-259). Put plainly: ELISA, mAb titrated on D2-SR-M16(210-259).
Chain of D2-SR-M16(210-259) (chain, as listed by the source): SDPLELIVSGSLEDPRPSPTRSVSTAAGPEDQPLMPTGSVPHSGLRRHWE
Assay [11] has as its target T2, human LILRB4. The experiment in a line: ELISA, OD450 against antibody concentration. This is another data set of the same source.

T1 sequence (Q8N423 22-458 limits assumed): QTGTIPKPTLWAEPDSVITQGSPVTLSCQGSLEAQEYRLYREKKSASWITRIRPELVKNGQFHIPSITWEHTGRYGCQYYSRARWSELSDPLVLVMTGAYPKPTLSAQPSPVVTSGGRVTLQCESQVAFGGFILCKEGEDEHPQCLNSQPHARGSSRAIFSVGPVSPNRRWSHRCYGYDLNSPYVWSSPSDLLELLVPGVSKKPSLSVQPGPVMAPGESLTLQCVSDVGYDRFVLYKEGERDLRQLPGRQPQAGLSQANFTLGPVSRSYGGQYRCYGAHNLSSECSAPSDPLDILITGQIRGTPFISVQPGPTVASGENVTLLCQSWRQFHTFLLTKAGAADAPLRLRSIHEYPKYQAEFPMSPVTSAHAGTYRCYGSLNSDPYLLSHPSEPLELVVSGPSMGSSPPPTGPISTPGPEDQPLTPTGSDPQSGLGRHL

B1: anti-LILRB mAb C193 (antibody, V domains shown)
VH: EVQLVESGGGLVQPKGSLRLSCAASGFIFNTYAMNWVRQAPGKGLEWVARIRSKSNKYATYYVDSVKDRFTISRDDSQSMLYLQMNNLKTEDTAMYYCVRDGIWGQGTLVTVSA
VL: DIVMTQSPSSLTVTAGEKVTMSCKSSQSLLNSGNQKNYLTWYHQKPGQPPKLLIYWAFTRESGVPDRFTGSGSGTDFTLTISSVQAEDLAVYYCQNDYSYPLTFGSGTKLEIK
notes: mAb against LILRB2
Turning to B1, the “% of cells in the positive gate” value in assay [1] was 15%.

B2: anti-LILRB4 rabbit monoclonal antibody #192 (antibody, V domains shown)
VH: EQSLEESGGGLVTPGGTLTLTCTVSGFSLSNNAMSWVRQAPGKGLEWIGVILLAGPTYYASWAKGRFTISKTSTTVDLKITSPTTEDTATYFCAIAIGSRPFALWGQGTLVTISS
VL: ELVLTQTPSSTSAAVGGTVTINCQSSQSVYSNWLSWFQQKPGQPPKPLIYLASTLASGVPSRFSGSGSGTQFTLTISDVQCDDAATYYCQGGYNGNIYTFGGGTEVVVK
notes: Rabbit mAb
As a reminder, the EC50 is the concentration that produces a half-maximal response. Read a low EC50 as a more potent agent. B2 came in with an EC50 in [2] of 0.14 nM.

B3: anti-LILRB4 rabbit monoclonal antibody #208 (antibody, V domains shown)
VH: EQSVEESGGGLVTPGGTLTLTCTVSGFSLSNNAMSWVRQAPGKGLEWIGVILLSGTTYYASWAKGRFTISKTSTTVDLKITSPTTEDTATYFCAIAIGSRPFALWGQGTLVTISS
VL: ELVMTQTPSSTSAAVGGTVTINCQSSQSVYSNWLSWFQQKPGQPPKPLIYLASTLASGVPSRFSGSGSGTQFTLTISDVQCDDAATYYCQGGYNGNIYTFGGGTEVVVK
notes: Rabbit mAb
B3 displayed a concentration giving a half-maximal response (EC50) in assay [2] of 0.132 nM.

B4: anti-LILRB4 rabbit monoclonal antibody #128-1 (antibody, V domains shown)
VH: EQSVEESEGRLVTPGGSLTLTCTVSGFGLSSWAMAWVRQAPGKGLEWIGIIGVSGKIYYPTWAKGRFTISRTSTTVDLKIASPTTEDTATYFCAREPYGDSLWGQGTLVTISS
VL: ELVMTQTPSPVSAAVGGTVTISCQSSQNISTYLSWYQQKPGQPPKFLIYQASKLASGVSSRFKGSGSGTQFTLTISDVQCDDAASYYCAGWKSYSNDDNDFGGGTEVVVK
notes: Rabbit mAb
For the molecule B4, the EC50 in assay [2] came to 0.139 nM; in assay [3] it was 0.0209 µg/mL.

B5: anti-LILRB4 rabbit monoclonal antibody #216-1 (antibody, V domains shown)
VH: EQSVEESGGGLVKPGASLTLTCIASGFSFSSSYVMCWVRQAPGKGLELIACIHAGGSGSTYYASWAKGRFTISKTSSTTVTLQMTSLTAADTATYFCARYNYHFYYIGDYSDLWGPGTLVTVSS
VL: ELVMTQTPSSVSAAVGGTVTIKCQASEDIDSYLAWYQQKPGQRPKVLIYRASTLASGVPSRFKGSGSGTEFTLTISGLECDDAATYYCQQGWSNDVGSNAFGGGTKVEIK
notes: Rabbit mAb
The molecule B5 returned an EC50 in assay [4] of 0.0459 µg/mL.

B6: anti-LILRB mAb C290 (antibody, V domains shown)
VH: EVQLLQSGPELVKPGASVKISCRTSGYTFTEYTMHWVKQSHGKSLEWIGGINTNNGGTSYNQKFKGKATLTVDKSSSTAYMELRSLTSEDSAVYYCARDKRSRGELDSTMDYWGQGTSVTVSS
VL: DIVMTQAAPSVPVTPGESVSISCRSSKSLLHSNGNTYLYWFLQRPGQSPQLLIYRMSNLASGVPDRFSGSGSGTAFTLRISRVEAEDVGVYYCMQHLEYPFTFGSGTMLEIK
notes: mAb against LILRB3
Turning to B6, the “% of cells in the positive gate” value in assay [5] amounted to 64%. The binding result in [6] and in assay [7] was “binds” in each case.

B7: anti-LILRB mAb C287 (antibody, V domains shown)
VH: QIQLVQSGPELKKPGETVKISCKASGYTFTNYGINWVKQAPGKGLKWMGWINTNTGEPTYAEDFKGRFAFSLETSASTAYLQINNLKNEDTATYFCTRGSAKGGFFYWGQGTLVTVSA
VL: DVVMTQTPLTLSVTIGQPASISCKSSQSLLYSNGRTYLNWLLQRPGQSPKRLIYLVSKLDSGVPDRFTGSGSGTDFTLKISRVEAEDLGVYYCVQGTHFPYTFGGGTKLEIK
notes: mAb against LILRB3
In the case of B7, the “% of cells in the positive gate” value in [5] came to 55%.

B8: anti-LILRB4 rabbit monoclonal antibody #120 (antibody, V domains shown)
VH: QSLEESGGRLVTPGTPLTLTCTVSGIDLNKYAMTWVRQAPGKGLEYIGFINIVGIAGYATWAKGRFTISKTSTTVDLKVTSPTTEDTATYFCARNWIRLDLWGQGTLVTVSS
VL: ELDLTQTPASVSAAVGGTVTISCQSSESLYKKNYLSWFQQKPGQPPKLLIFEASKLASGVPSRFSGSGSGTQFTLTISDVQCDDAASYYCLGDYTNGRDTTFGGGTEVVVK
notes: Rabbit mAb
The molecule B8 had an EC50 in assay [2] of 0.0795 nM. That is a picomolar value.

B9: anti-LILRB4 mAb C84 (antibody, V domains shown)
VH: QIQLVQSGPELKKPGETVKISCKASGYTFTNYGMNWVKQAPGKGLKWMGWINTYTGEPTYADDFKGRFAFSLETSASTAYLQINNLKNEDMATYFCASIYYHTSLWYFDVWGAGTTVTVSS
VL: DVLMTQTPLSLPVSLGDQASISCRSSQNIVHSNGNTYLEWYLQKPGQSPKLLIYRVSNRFSGVPVRFSGSGSGTDFTLKISRVEAEDLGVYYCFQGSHVPLTFGAGTKLELK
notes: Mouse mAb; also called anti-hLILRB4
The molecule B9 gave an EC50 in assay [2] of 0.568 nM. Further, the “% of cells in the positive gate” value in [8] is 62.5%.

B10: anti-LILRB mAb C102 (antibody, V domains shown)
VH: EVQLQQSGPELVKPGASVKISCKTSGYTFTEYTMHWVKQSHGKSLEWIGGINPNNGGTSYNQKFKGKATLTVDKSSSTAYMDLRSLTSEDSAVYYCARYWDYFDYWGQGTTLTVSS
VL: DVLMTQTPLSLPVSLGDQASISCRSSQSIVHSNGNTYLEWFLQKPGQSPKLLIYKVSNRFSGVPDRFSGSGSGTDFTLKISRVEAEDLGVYYCFQGSQIPPTFGGGTKLEIK
notes: mAb against LILRB2
For the molecule B10, in [1], the “% of cells in the positive gate” value was 5.22%.

B11: anti-LILRB4 mAb C92 (antibody, V domains shown)
VH: QIQLVQSGPELKKPGETVKISCKASGYTFTNYGMNWVKQAPGKGLKWMGWINTYTGEPTYADDFKGRFAFSLETSASTAYLQINNLKNEDMATYFCASIYYHTSLWYFDVWGAGTTVTVSS
VL: DVVMTQTPLSLPVSLGDQASISCRSSQSLVHSNGNTYLHWYLQKPGQSPKLLIYKVSNRFSGVPDRFSGSGSGTDFTLKISRVEAEDLGVYFCSQSTHVPYTFGGGTKLEIK
notes: Mouse mAb
For the molecule B11, the “% of cells in the positive gate” value in assay [8] was found to be 44.7%.

B12: anti-LILRB4 mAb C201 (antibody, V domains shown)
VH: DVQLQESGPGLVKPSQSLSLTCTVTGYSITSDYAWNWIRQFPGNKLEWMGYISYSGGTSYNPSLKSRISITRDTSKNQFFLQLNSVTTEDTATYYCARLHYGYDYWGLGTTLTVSS
VL: DVLMTQTPLSLPVSLGDQASISCRSSQSIVHSNGNTYLEWYLQKPGQSPKLLIYKVSNRFSGVPDRFSGSGSGTDFTLKISRVEAEDLGVYYCFQGLHVPPTFGGGTKLEIK
notes: Mouse mAb
Turning to B12, in assay [7], the binding result is “binds”. Besides, the “% of cells in the positive gate” value in assay [8] is 38.3%.

B13: anti-LILRB4 rabbit monoclonal antibody #101 (antibody, V domains shown)
VH: HSVKESGGGLVTPGESLKLTCKASGMDFSKYWICWVRQAPGKGLEWIACIDTGRSAITVYAKWAKGRFTISKTSSTTVTLQMTTLTAADTATYFCETSVDLWGPGTLVTISS
VL: ELDLTQTPASVEAAVGGTVTIKCQASESIYSGLAWYKQKPGQPPKFLILSASTQASGVPSRFKGSGSGTEFTLTISDLECADAATYYCQSRHYGSSRSYGFAFGGGTEVEIK
notes: Rabbit mAb
In the case of B13, the values for the EC50 in [9] and in assay [2] were 0.0177 µg/mL and 0.118 nM, respectively.

B14: anti-LILRB mAb C3 (antibody, V domains shown)
VH: EVQLVESGGGLVQPKGSLKLSCAASGFTFNNYAMNWGRQAPGKGLEWVARIRSKRNNYATHYDDSVKDRFTISRDDSQNMLYLQLNNLKTEDTAMYYCVRDGPYAMDYWGQGTSVTVSS
VL: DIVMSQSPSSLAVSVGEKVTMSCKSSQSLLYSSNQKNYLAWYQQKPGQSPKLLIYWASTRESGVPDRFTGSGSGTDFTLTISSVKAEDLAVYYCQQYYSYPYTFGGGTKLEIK
notes: mAb against LILRB3
As for B14, in assay [5], the “% of cells in the positive gate” value came out at 54.2%. Also, in assay [6], the binding result is “binds”.

B15: anti-LILRB4 mAb C53 (antibody, V domains shown)
VH: EVNLEESGGGLVQPGGSMKLSCIASGFTFSNYWMNWVRQSPEKGLEWVAEIRLKYNNYATHYAESVKGRFTISRDDSKSTVYLQMNNLRAEDTGIYYCTGTRYGSSLDYWGQGTSVTVSS
VL: DIVMSQSPSSLAVSVGEKVTMSCKSSQNLFYSTNQKNYLAWYQQKPGQSPKLLIYWASTRESGVPDRFTGSGSGTAFTLTISSVKAEDLAVYYCQQYYNYPLTFGAGTKLELK
notes: Mouse mAb
Take B15: the “% of cells in the positive gate” value in assay [8] was 73.5%.

B16: anti-LILRB4 rabbit monoclonal antibody #161-1 (antibody, V domains shown)
VH: QSVKESGGRLVTPGTPLTLTCTVSGIDLSVYLMSWVRHSPGKGLEYIGFINSAGITAYATWAKGRFIISKTSTTVDLKVTSPTTEDTATYFCARNWIRLDLWGQGTLVTISS
VL: ELDLTQTPASVSAAVGGTVTISCQSSETIYKNYLSWFQQKPGQPPKLLIYESSKLASGVPSRFSGSGSGTQFTLTISDVQCDDAATYYCLGGYTDGRDTIFGGGTELEIK
notes: Rabbit mAb
For the molecule B16, in [2], it took 0.0691 nM to reach a half-maximal effect (EC50).

B17: anti-LILRB4 rabbit monoclonal antibody #161-2 (antibody, V domains shown)
VH: QSVKESGGRLVTPGTPLTLTCTVSGIDLSVYLMSWVRHSPGKGLEYIGFINSAGITAYATWAKGRFIISKTSTTVDLKVTSPTTEDTATYFCARNWIRLDLWGQGTLVTISS
VL: TQTPASVSAAVGGTVTISCQSSETIYKNYLSWFQQKPGQPPKLLIYESSKLASGVPSRFSGSGSGTQFTLTISDVQCDDAATYYCLGGYTDGRDTIFGGGTEVEIK
notes: Rabbit mAb
Consider B17, for which the response in [2] was half-maximal at 0.084 nM (EC50).

B18: anti-LILRB4 rabbit monoclonal antibody #140 (antibody, V domains shown)
VH: EQSLKESGGRLVTPGTPLTLTCTASGFSLSTYDMSWVRQAPGKGLEWIGIISTSYSIYYTYYASWAKGRFTISRTSSTTVDLKMTSLTTEDTATYFCVGGGGKLNSVVYYIRGLRFWGQGTLVTISS
VL: ELVMTQTPSSTSAAVGGTVTINCQASQSVYDDNWCSWYQQKPGQPPKLLIYDASTLPSGVPSRFKGSGSGTQFTLTISDLECDDAATYYCAGAYSDNIYVFGGGTEVEIK
notes: also called mAb 140
The term EC50 (read off the curve) denotes the concentration that produces a half-maximal response. A low value points to a more potent agent. B18: the “EC50 (read off the curve)” value in [10] is roughly 0.04 µg/mL. Besides, the EC50 in assay [11] was found to be 0.0274 µg/mL; in [2], 0.183 nM.

The record behind these values is patent US20200079851A1 (University of Texas, published 2020).
